Article PMC8876999

Tests used:
Test in all cases: purified protein
Assay type in all cases: biochemical, Homo sapiens
purified protein [1] = substrate: NC(=O)c1ccc[n+]([C@@H]2O[C@H](COP(=O)(O)OP(=O)(O)OC[C@H]3O[C@@H](n4cnc5c(N)ncnc54)[C@H](O)[C@@H]3O)[C@@H](O)[C@H]2O)c1; settings: 60 mM L-T4C, pH 7.5, Tris-HCl, varied: cofactor
purified protein [2] = substrate: O=C(O)[C@@H]1CSCN1; settings: 1 mM NADP+, pH 7.5, Tris-HCl, L-T4C 0-25 mM
purified protein [3] = substrate: NC(=O)c1ccc[n+]([C@@H]2O[C@H](COP(=O)(O)OP(=O)(O)OC[C@H]3O[C@@H](n4cnc5c(N)ncnc54)[C@H](OP(=O)(O)O)[C@@H]3O)[C@@H](O)[C@H]2O)c1; settings: 60 mM L-T4C, pH 7.5, Tris-HCl, varied: cofactor

B1: PYCR2 (Homo sapiens) (protein)
chain: MSVGFIGAGQLAYALARGFTAAGILSAHKIIASSPEMNLPTVSALRKMGVNLTRSNKETVKHSDVLFLAVKPHIIPFILDEIGADVQARHIVVSCAAGVTISSVEKKLMAFQPAPKVIRCMTNTPVVVQEGATVYATGTHALVEDGQLLEQLMSSVGFCTEVEEDLIDAVTGLSGSGPAYAFMALDALADGGVKMGLPRRLAIQLGAQALLGAAKMLLDSEQHPCQLKDNVCSPGGATIHALHFLESGGFRSLLINAVEASCIRTRELQSMADQEKISPAALKKTLLDRVKLESPTVSTLTPSSPGKLLTRSLALGGKKD
Purified protein [1]
  Km: 660 ± 110 µM
  kcat: 0.36 ± 0.13 s⁻¹
  kcat/Km: 551 ± 223 M⁻¹ s⁻¹
Purified protein [2]
  Km: 6800 ± 900 µM
  kcat: 0.92 ± 0.04 s⁻¹
  kcat/Km: 136 ± 19 M⁻¹ s⁻¹
Purified protein [3]
  Km: 530 ± 120 µM
  kcat: 0.46 ± 0.02 s⁻¹
  kcat/Km: 857 ± 224 M⁻¹ s⁻¹
